Assay: yeast display, Sf9 membrane polyspecificity reagent, FACS + sequencing; frameworks hold sequencing errors
How it was run: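 Genes from sorted yeast were amplified by colony PCR, read by MiSeq 2 × 250 sequencing and filtered on CDR length. These cells carried a synthetic nanobody library in Saccharomyces cerevisiae BJ5465 and were sorted by FACS into low and high (top ~1%) gates on anti-HA and streptavidin fluorescence. Polyreactivity is labelled according to the gate of origin.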

| Sequence | polyreactivity (PSR sort gate) |
| --- | --- |
| QVQLVESGGGLVQAGGSLRLSCAASGLIFPFYTMGWYRQAPGKERELVASISSGASTYYADSVKGRFTISRDNAKNTVYLQMNSLKPEDTAVYYCNADTFAWEGQRKWFAYDYWGQGTQVTVSS | low polyreactivity |
| QVQLVESGGAVVHAGGSLRLSCAASGFTFRYYDKGWYRQAHGKEMELVAAISSGGSTDYADSVKGRFTISRDNAKNTVYLQMNCLKPEDNAVYYCAADWWVVYTYDYWGPGTQVTVSS | low polyreactivity |
| QVQLVESGGGLVQAGGSLRLSCAASGRTFVLYAMGWYRQAPGKERELVASITSGGSTNYADSVKGRFTISRDNAKNTVYLQMNSLKPEDTAVYYCNADLDVYLWFIFTVYQDDYDYWGQGTQVTVSS | high polyreactivity |
| QVQLVESGGGLVQAGGSLRLSCAASGITFVRNAMGWYRQAPGKEREFVAAISGSGVSTYADSVKGRFTISRDNAKNTVYLQMNSLKQEDTAVYYCNTDEWYHFYHGSHKYDYWGQGTQVTVSS | low polyreactivity |
| QVQLVESGGGLVQAGGSLRLSCAASGLTFVHYAMGWYRQAPGKQRDLVAAISSGGGSTYYADSVKGRFTISRDNAKNTVYLQMNSLKPEDTAVYYCNVYDHYYSFYSSRDNDYWGQGTQVTVSS | low polyreactivity |
| QVQLVESGGGLVQAGGSLRLSCAASGSIFIGYAMGWYRQAPGKERELVAAISNSGGRTYYADSVKGRFTISRDNAKNTVYLQMNSLKPEDTAVYYCNVAYRIPYRMDYWGQGTQVTVSS | high polyreactivity |
| QVQLVESGGGLVQAGGSLRLSCAASVSTFALYVMGWYRQAPGKERELVAAITDSSSTYYADSVKGRFTISRDNAKNTVYLQMNSLKPEDTAVYYCAARGRLIYAITYRNSPVYYWGQGTQVTVSS | low polyreactivity |
| QVQLVESGGGLFQAGGSLRLSCAASGSTLVGNAMGWYRQAPGKERELVATISSSGGSTYYADSVKGRFTISRDNAKNTVYLQMNSLKPEDTGVYYCAARIQWPTWSLYYYWGQGTQVTVSS | high polyreactivity |
| QVQLVESGGGLLQAGASLRLSCAASGRTIYRYAMGRYRQAPGKERELVAAITRRGVNTYYADSVKGRFTISRDNAKNTVYLQMYSLKPVDTAVFYCNAAYSSRYDYCGQGTQVTVSS | high polyreactivity |
| QDQLVESGGGLVQAGGSLRLSCAASGFIFNKNAMGWYRQAPGKERELVAAITFGGGTTYYADSVKGRFTISRDNAKNTVYLQMNSLKPEDTAVYYCAKRYWRHPVFYLYDYWGQGTQVTVSS | high polyreactivity |
| QVQLVESGGGLVQAGGSLRLSCAASGRTFRAYAMGWYRQAPGKERELVAAITSGGSTKYADSVKGRFTITRDNAKNTVYLLMNSLKPEDTAVYYCAAVWYGYYSFDTYGYWGQGTQVTVSS | high polyreactivity |
| QVQLVESGGGLVQAGGSLRLSCAASGLIFVKNTMGWYRQAPGKERELVAGISQRGGSTYYADSVKGRFTISRDNAKNSVYLQMNILKPEDTAVFYCAAYSRTFEGHRGGYWGQGTQVTVSS | high polyreactivity |
| QVQLVESGGGLVQAGGSLRLSCAASGLTFWGNTMGWYRQAPGKERELVAAISSGGITYYADSVKGRFTISRDNANNTVYLLMNSLKPEETAVYYCIGVFSFVPHEMDYWGLGTQVTVSS | high polyreactivity |
| QVQHVESGGGLVQAGGSLRLSCAASGRTFYYNDMGWSRQAPGKERELVAAISWSGVSTSYADSVKGRFTISRDNAKNTVYLQMNSLKPEDTAVYYCAADNDGWYFHITEYDYWGQGTQVTVSS | low polyreactivity |
| QVQLVESGAGLVQAGGSLRLSCSAYGFIFGFYAMGWSRQAPGKERELVADITSSGGSTYYADSVKGRFTLSRDNAKNTVYLQMNSLKPEDTAVYYCAADGWWHNFYPGNGLDYWGQGTQVTVSS | low polyreactivity |
| QVQLVESGGGLVQAGGSLRLSCAASGRIFGFYAMGWYRQAPGKERELVADINWSATSTYYADSVKGRFTISRDNAKNTVYLQMNSLKPEDTAVYYCAADVSYRYYWGQVTQVTVSS | low polyreactivity |
| QVQLVESGGGLVQAGRSLRLICAASGRILGGNTMGWYRQAPGKERELVAGISYSGGRTYYADSVQRRFTISRDNAKHTFYLQMNSLKPEDTAVYYCNVPLGRGRKIAYGYWGQGTQVTVSS | high polyreactivity |

From the nanobody polyreactivity screen of Harvey et al. (2022)
